Assay results as given in article PMC10714992, “A monoclonal antibody targeting spore wall protein 1 inhibits the proliferation of Nosema bombycis in Bombyx mori” (Microbiology Spectrum, 2023).

B1: recombinant scFvG9 from the baculovirus expression system (scFv, V domains shown)
VH: QVQLQQSGAELARPGASVKMSCKASGYTFTGFSIHWVKQRPGQGLEWIGYINPSSAYTKYNQNFKDKATLTADKSSSTAYMQLNSLTSDDSAVYYCAYRYDVGDYWGQGTSVTVSS
VL: DIVITQSPSSLAVSAGEKVTLSCKSSQSLFNSRTRKNYLAWYQQKPGQSPKLLIYWASTRESGVPDRFTGSGSGTDFTLTISSVQAEDLAVYYCKQSYYLWTFGGGAKLEIK
notes: variable domain of the heavy chain of m1; (G4S)3 linker; variable domain of the light chain of m1; The construct contains a signal peptide and a 6xHis tag; Detected in the ELISA by an anti-6xHis antibody; also called rscFvG9; pFast-rscFvG9; source: Bac-to-Bac baculovirus system, insect cells (Sf-900 III / Sf9), serum-free medium, purified (Ni-NTA); not shown: His6, C-terminal, kept
B2: NscFvG9 expressed in NscFvG9 transgenic silkworm (scFv, V domains shown)
VH: QVQLQQSGAELARPGASVKMSCKASGYTFTGFSIHWVKQRPGQGLEWIGYINPSSAYTKYNQNFKDKATLTADKSSSTAYMQLNSLTSDDSAVYYCAYRYDVGDYWGQGTSVTVSS
VL: DIVITQSPSSLAVSAGEKVTLSCKSSQSLFNSRTRKNYLAWYQQKPGQSPKLLIYWASTRESGVPDRFTGSGSGTDFTLTISSVQAEDLAVYYCKQSYYLWTFGGGAKLEIK
notes: variable domain of the heavy chain of m1; (G4S)3 linker; variable domain of the light chain of m1; Same IE1-NscFvG9-SV40 cassette as m4 (no signal peptide), in pBac[3xP3-EGFP]; also called NscFv9; source: transgenic silkworm (Bombyx mori), cell lysate
B3: scFvG9 expressed in scFvG9-Neo transgenic BmE cells (scFv, V domains shown)
VH: QVQLQQSGAELARPGASVKMSCKASGYTFTGFSIHWVKQRPGQGLEWIGYINPSSAYTKYNQNFKDKATLTADKSSSTAYMQLNSLTSDDSAVYYCAYRYDVGDYWGQGTSVTVSS
VL: DIVITQSPSSLAVSAGEKVTLSCKSSQSLFNSRTRKNYLAWYQQKPGQSPKLLIYWASTRESGVPDRFTGSGSGTDFTLTISSVQAEDLAVYYCKQSYYLWTFGGGAKLEIK
notes: variable domain of the heavy chain of m1; (G4S)3 linker; variable domain of the light chain of m1; The construct encodes an N-terminal secretion signal peptide from the CL40 anti-EBV/HHV-4 gHgL immunoglobulin heavy chain
B4: G9 intact antibody expressed in G9-Neo transgenic BmE cells (antibody, V domains shown)
VH: QVQLQQSGAELARPGASVKMSCKASGYTFTGFSIHWVKQRPGQGLEWIGYINPSSAYTKYNQNFKDKATLTADKSSSTAYMQLNSLTSDDSAVYYCAYRYDVGDYWGQGTSVTVSS
VL: DIVITQSPSSLAVSAGEKVTLSCKSSQSLFNSRTRKNYLAWYQQKPGQSPKLLIYWASTRESGVPDRFTGSGSGTDFTLTISSVQAEDLAVYYCKQSYYLWTFGGGAKLEIK
notes: as the heavy chain of m1 (G9H); as the light chain of m1 (G9L); G9H was amplified with a signal peptide at the 5' end and a 6xHis tag at the 3' end; The light chain was made 'similarly', so it is not clear whether it also carries them; IE1 promoter; also called G9H + G9L
B5: NscFvG9 expressed in NscFvG9-Neo transgenic BmE cells (scFv, V domains shown)
VH: QVQLQQSGAELARPGASVKMSCKASGYTFTGFSIHWVKQRPGQGLEWIGYINPSSAYTKYNQNFKDKATLTADKSSSTAYMQLNSLTSDDSAVYYCAYRYDVGDYWGQGTSVTVSS
VL: DIVITQSPSSLAVSAGEKVTLSCKSSQSLFNSRTRKNYLAWYQQKPGQSPKLLIYWASTRESGVPDRFTGSGSGTDFTLTISSVQAEDLAVYYCKQSYYLWTFGGGAKLEIK
notes: variable domain of the heavy chain of m1; (G4S)3 linker; variable domain of the light chain of m1; scFvG9 with the signal peptide of VH removed, expressed intracellularly; also called scFv without the secretory signal peptide
B6: G9 intact antibody expressed in G9 transgenic silkworm (antibody, V domains shown)
VH: QVQLQQSGAELARPGASVKMSCKASGYTFTGFSIHWVKQRPGQGLEWIGYINPSSAYTKYNQNFKDKATLTADKSSSTAYMQLNSLTSDDSAVYYCAYRYDVGDYWGQGTSVTVSS
VL: DIVITQSPSSLAVSAGEKVTLSCKSSQSLFNSRTRKNYLAWYQQKPGQSPKLLIYWASTRESGVPDRFTGSGSGTDFTLTISSVQAEDLAVYYCKQSYYLWTFGGGAKLEIK
notes: as the heavy chain of m1 (G9H); as the light chain of m1 (G9L); Same IE1-G9H-SV40 + IE1-G9L-SV40 cassettes as m2, in pBac[A3-EGFP]; G9H has a signal peptide at the 5' end; It is not clear whether the light chain also carries a signal peptide and His tag; source: transgenic silkworm (Bombyx mori), hemolymph and cell lysate
B7: recombinant G9 intact antibody (rG9H + rG9L) from the baculovirus expression system (antibody, V domains shown)
VH: QVQLQQSGAELARPGASVKMSCKASGYTFTGFSIHWVKQRPGQGLEWIGYINPSSAYTKYNQNFKDKATLTADKSSSTAYMQLNSLTSDDSAVYYCAYRYDVGDYWGQGTSVTVSS
VL: DIVITQSPSSLAVSAGEKVTLSCKSSQSLFNSRTRKNYLAWYQQKPGQSPKLLIYWASTRESGVPDRFTGSGSGTDFTLTISSVQAEDLAVYYCKQSYYLWTFGGGAKLEIK
notes: as the heavy chain of m1 (rG9H); as the light chain of m1 (rG9L); rG9H contains a signal peptide at the 5' end and is driven by the polyhedrin promoter; rG9L is driven by the p10 promoter; Detected in the ELISA by an anti-6xHis antibody; also called pFast-rG9; source: Bac-to-Bac baculovirus system, insect cells (Sf-900 III / Sf9), serum-free medium, purified (Ni-NTA); not shown: His6, C-terminal, …
B8: scFvG9 expressed in scFvG9 transgenic silkworm (scFv, V domains shown)
VH: QVQLQQSGAELARPGASVKMSCKASGYTFTGFSIHWVKQRPGQGLEWIGYINPSSAYTKYNQNFKDKATLTADKSSSTAYMQLNSLTSDDSAVYYCAYRYDVGDYWGQGTSVTVSS
VL: DIVITQSPSSLAVSAGEKVTLSCKSSQSLFNSRTRKNYLAWYQQKPGQSPKLLIYWASTRESGVPDRFTGSGSGTDFTLTISSVQAEDLAVYYCKQSYYLWTFGGGAKLEIK
notes: variable domain of the heavy chain of m1; (G4S)3 linker; variable domain of the light chain of m1; Same IE1-scFvG9-SV40 cassette as m3, which encodes a secretion signal peptide; also called scFv9; source: transgenic silkworm (Bombyx mori), hemolymph

Assays:
[1] = molecular target: T1, recombinant GST-SWP1 fusion protein (Nosema bombycis CVCC 102059, UniProt B3STN5); assay: ELISA; indirect ELISA: plates coated with recombinant GST-SWP1 (0.3 ug/well) overnight at 4 C, recombinant 6xHis-tagged antibodies from baculovirus added for 1 h at room temperature, detected with anti-6xHis rabbit mAb; titer; conditions: both partners purified
T1 construct: spore wall protein 1 (SWP1) of Nosema bombycis, gene cloned by PCR into pGEX-4T-1 (BamH I / XhoI); also called rGST-SWP1; source: E. coli Rosetta, pGEX-4T-1, purified (Glutathione Sepharose)

[2] = molecular target: T2, prokaryotic-expressed recombinant SWP1 (Nosema bombycis CVCC 102059, UniProt B3STN5); assay: Western blot; rSWP1 separated by SDS-PAGE; hemolymph or cell lysate of transgenic silkworms used as primary antibody; conditions: one partner purified
T2 construct: spore wall protein 1 (SWP1) of Nosema bombycis, gene cloned by PCR from cDNA into pET30a (BamH I / HindIII); also called rSWP1; source: E. coli Rosetta, pET30a, purified (Ni-NTA)

[3] = molecular target: T3, Nosema bombycis spore wall protein 1, native (Nosema bombycis (strain CQ1 / CVCC …, UniProt B3STN5)); assay: Western blot; alkali-soluble germination (spore) proteins separated by SDS-PAGE on PVDF; culture supernatant or lysate of G9-Neo, scFvG9-Neo and NscFvG9-Neo BmE cells used as primary antibody; conditions: partners not purified
T3 construct: spore wall protein 1 (SWP1) of Nosema bombycis, gene locus NBO_552g0005; also called SWP1; native SWP1
T3 sequence (B3STN5 20-278): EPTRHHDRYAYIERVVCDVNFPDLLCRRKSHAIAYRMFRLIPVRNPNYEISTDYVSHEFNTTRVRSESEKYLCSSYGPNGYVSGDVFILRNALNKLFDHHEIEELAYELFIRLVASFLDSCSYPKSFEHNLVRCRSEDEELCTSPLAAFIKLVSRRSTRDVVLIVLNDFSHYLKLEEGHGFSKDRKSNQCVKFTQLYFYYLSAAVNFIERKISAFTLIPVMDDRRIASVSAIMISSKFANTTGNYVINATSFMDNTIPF

T2 sequence (B3STN5 20-278): as above
T1 sequence (B3STN5 20-278): as above

Binder | binding result [2] | binding result [3] | also measured
B1 |  |  | binding result [1]: binds
B2 | binds |  | 
B3 |  | binds | 
B4 |  | binds | 
B5 |  | binds | 
B6 | binds |  | 
B7 |  |  | binding result [1]: binds
B8 | binds |  | 
